Source: PMC9674614 (Nature Communications, 2022)

Experiments:
[1] = target: C-terminal domain of vaccinia virus C16 (vaccinia virus strain Western Reserve (WR)) (UniProt P03296); test: SEC; C16-C alone
[2] = target: vaccinia virus protein C4, full length, from baculovirus (vaccinia virus strain Western Reserve (WR)); test: SEC
SEC = target: the molecule itself; test: SEC
[3] = target: the molecule itself; test: mass photometry; purified recombinant C16 alone

C-terminal domain of vaccinia virus C16 (from UniProt P03296) (domain or fragment)
stoichiometry N [1]: 2

vaccinia virus protein C4, full length, from baculovirus (natural protein)
stoichiometry N [2]: 2

B1: vaccinia virus (strain Western Reserve) protein C16, full length, from E. coli (natural protein)
chain: MDIYDDKGLQTIKLFNNEFDCIRNDIRELFKHVTDSDSIQLPMEDNSDIIENIRKILYRRLKNVECVDIDSTITFMKYDPNDDNKRTCSNWVPLTNNYMEYCLVIYLETPICGGKIKLYHPTGNIKSDKDIMFAKTLDFKSKKVLTGRKTIAVLDISVSYNRSMTTIHYNDDVDIDIHTDKNGKELCYCYITIDDHYLVDVETIGVIVNRSGKCLLVNNHLGIGIVKDKRISDSFGDVCMDTIFDFSEARELFSLTNDDNRNIAWDTDKLDDDTDIWTPVTEDDYKFLSRLVLYAKSQSDTVFDYYVLTGDTEPPTVFIFKVTRFYFNMPK
notes: also called VACV-C16; FLC16
stoichiometry N (SEC): 2
stoichiometry N [3]: 4
